Target: Cry1Ac toxin (Bacillus thuringiensis, UniProt P05068 29-623, rhodamine label (5(6)-TAMRA SE) in the cell-staining assay; coupled to CNBr-activated Sepharose 4B in the affinity assay)
Experiment: rhodamine-labeled toxin staining of fixed Sf21 cells, confocal microscopy

B1: Manduca sexta 120 kDa aminopeptidase N APN1a expressed in Sf21 cells transfected with pHSP120 (receptor)
chain: PSYRLPTTTRPRHYAVTLTPYFDVVPAGVSSLTTFSFDGEVTIYISPTQANVNEIVLHCNDLTIQSLRVTYVSGNSEVDITATGQTFTCEMPYSFLRIRTSTPLVMNQEYIIRSTFRGNLQTNMRGFYRSWYVDRTGKRWMATTQLQPGHARQAFPCYDEPGFKATFDITMNREADFSPTISNMPIRATTTLTNGRISETFFTTPLTSTYLLAFIVSHYQVISNNNNAARPFRIYARNNVGSQGDWSLEMGEKLLLAMENYTAIPYYTMAQNIDMKQAAIPDFSAGAMENWGLLTYREALILYDPLNSNHHYRQRVANIVSHEIAHMWFGNLVTCAWWDNLWLNEGFARFYQYYLTATVDPELGYEIRFIPEQLQVAMFSDSVDSAHALTDTSVNDPVAVSAHFSTITYARGAAILRMTQHLLSYDTFVKGLRQYLRARQFDVAEPYHLFSALDAAAAEDNALAAYTGITIDAYFRTWSEKAGHPLLSVTVDHETGRMTLVQARWERNTGVSRFPGLWHIPITWTRAGAPDFENLKPSQVMTGQSLVIDRGTRGQEWVIFNKQVSGFYRVNYDNTTWGLITRALRSANRTVIHELSRSQIVDDVFQLARSGVMSYQRALNILSYLRFEDAYAPWLSAISGFNWVIRRFAHDAANLQTLQNQIIGLSEAVVARLGFTEVSGGTYMTDLQRLHVMQFLCNVGHQQCIDTGRQNFLNWRNGSFIPANMRPWVYCTGLRYGSAEDFNYFWNRYIVEDLSNEKVVMLEAAGCTRDQASLEKFLNAIVSGNDDVRPQDHSSALSSAITSNDVNTMRAFDWLTKNVDQITRTLGSITSPLNTITSRLLTEAQMTQVQTWLDANRNTIGAAYNTGVNGIATSRANLQWSANRMSEFLRFFETGFVDDVPSEATTVAPPAETTVTPSTFPPTEAPATTPAPG
modifications: GPI anchor at the C-terminus; heterogeneously glycosylated (residues not stated)
notes: also called expressed APN; expressed 120 kDa APN
B1: no binding (tested: 1 µg/ml).

From US7011975 (UNIVERSITY OF GEORGIA RESEARCH FOUNDATION, dated 2006)
